Laboratory results from the supplement of paper PMC9170038.

What was measured:
MS2 coat protein [1] = assay: apparent KD of MS2 coat protein, switch OFF state (with FMN for OFF switches, without FMN for ON switches); designed switch direction (-1 OFF switch, 1 ON switch): -1; higher = weaker reporter binding; details: FMN input: 0 or 200 uM; Eterna round: R93 (includes R88 designs)
How it was run: (§1)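 Designed RNA switches were transcribed on-chip from Illumina sequencing clusters. They were then titrated with SNAP-549-labelled MS2 coat protein (twofold steps, 0.7 or 1.5 nM to 3 µM; 0.8–1.5 h to 10–20 min per step) in 100 mM Tris-HCl pH 7.5, 80 mM KCl, 4 mM MgCl2, without or with constant ligand. Apparent KD is the per-design median of normalised cluster binding-curve fits.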

MS2 coat protein [2] = assay: apparent KD of MS2 coat protein, switch ON state; designed switch direction (-1 OFF switch, 1 ON switch): -1; higher = weaker reporter binding; details: FMN input: 0 or 200 uM; Eterna round: R93 (includes R88 designs)
How it was run: as §1

Sequence | apparent KD of MS2 coat protein (MS2 coat protein [1]) | apparent KD of MS2 coat protein (MS2 coat protein [2])
AACGAACAUGAGGAUCACCCAUGUCAGGAUAUGCGAAGAACGAUCGAACAAACGAUAAGCAGAAGGGACAGAGA [Amethyst 98] | 50 nM | 25.1 nM
CUCUAGUCAGGAUAUACAAGAAAAGAAGAGAAAGAAAAGAAGUAGAAGGGACAUGAGGAUCACCCAUGUAAGAA [EteRNA is fun!] | 48.2 nM | 50.9 nM
AAACGUUGAGGAUAUACAGAAGGGUAUAAAUCAUAAAAAACACAUGAGGAUCACCCAUGUAGAAGGCAACGAAA | 46.8 nM | 97.9 nM
AAAUGAUGAGGAUAUACAUGAGGAUCACCCAUGUGUAAAAAUAAAUACACAAAAGAAAGUAGAAGGCAUCAAAA [Ex 3 May 12] | 99 nM | 22.7 nM
AAGACUAGAGGAUAUACAUGAGGAUCACCCAUGUAACUGUCAGGAAACUGACGGAGAAGUAGAAGGCUAGUCAA [Mat - Exclusion 3 - JL mod - D85] | 20.2 nM | 16.1 nM
ACAUGACAUGAGGAUCACCCAUGUGAGGAUAUGCGAAAAAAAUUUUUAAAAAAAAUUGGCAGAAGGCACAAAAU [George Ritzer.] | 99.1 nM | 88.9 nM
AACAGUACAGGAUAUACAUGAGGAUCACCCAUGUGAAAAUUAAGUGGCGAACCACAAAGUAGAAGGGUACUGAA [Mat - Exclusion 3 - Eli mod - D56] | 79.3 nM | 38.7 nM
AACAGUACAGGAUAUACAUGAGGAUCACCCAUGUGGGAAUUAAGUGGCGUACCACAAAGUAGAAGGGUACUGGA [Moding Maslow revisited (73)] | 172 nM | 72.5 nM
AAGAAACAUGAGGAUCACCCAUGUCAGGAUAUGUAAAAGAAAAGAAAAGAAAGAAGAAACAGAAGGGACAAAGG [Neferkaure] | 126 nM | 83.9 nM
AGCUAGUCAGGAUAUACGAACAGCUCAAAAGAGCUGAAGGGACAUGAGGAUCACCCAUGUAGAAGGGACUAGCA [Mat - Exclusion 2 - JL mod - D27] | 89.6 nM | 24.5 nM
AAAACGGUAGGAUAUACGAAAAAAAAGGGAGAACAAAAGGGACAUGAGGAUCACCCAUGUAGAAGGACCAAAAA [Diamond 89] | 84.7 nM | 40.6 nM
AACAGGACAGGAUAUACAUGAGGAUCACCCAUGUGAAGAUUAAGAAGAAAACCACAAAGUAGAAGGGUCCUGGA [Ruby 94] | 79.2 nM | 35.1 nM
AAAAAGUCAGGAUAUAGCAAAGGUCACGAAAGUGACAAAGGCUAGAAGGGACAUGAGGAUCACCCAUGUAAAAA [Fiskers Exclusion 4 D2] | 38.8 nM | 53 nM
AGGAUGUCAGGAUAUGUGUAAAGAAUAAAACAAAUAACAACACAGAAGGGACAUGAGGAUCACCCAUGUUAAGA [May 44] | 55.7 nM | 36.8 nM
AGCUAGACAGGAUAUACGAACAUGUCAAAAGACGUAAGGGAACAUGAGGAUCACCCAUGUAGAAGGGUCUAGCA [Diamond 50] | 63.9 nM | 28.5 nM
CGGGAGUCAGGAUAUACGAACAUGUCGCCAGAUGUCAAGGUACAUGAGGAUCACCCAUGUAGAAGGGAGGAGAG [salish99-Ex2-34] | 65 nM | 80.8 nM
AGUUGGCGAGGAUAUACAUGAGGAUCACCCAUGUGAAAUCGCGAAGAAAUAGGGAAAAGUAGAAGGCGCUGACA [Ruby 61] | 19.9 nM | 11.6 nM
AAAAGACAUGAGGAUCACCCAUGUUAGGAUAUGGAAAAACAAAAAAAAAAAAAAAAAACCAGAAGGAGCGAGGG [another 1 four] | 132 nM | 190 nM
AGUUGGCGAGGAUAUACAUGAGGAUCACCCAUGUGAAAUAAAUAAAAAAUAAAAGGGAGUAGAAGGCGCUGACA [73%, Moding Norbert Elias, 17] | 82.3 nM | 43.6 nM
AGUAGUACAGGAUAUACAUGAGGAUCACCCAUGUGAAAAGAAAGUGGCGUACCACAAAGUAGAAGGGUACUACA [Mat - Exclusion 3 - JL mod - D34] | 152 nM | 33.7 nM
GAUGAGUGAGGAUAUGUAAAAAAAAGAGAAGAGAAGAGAGAACAGAAGGCACAUGAGGAUCACCCAUGUAGGGA [Default title] | 322 nM | 226 nM
AAAUGCUGAGGAUAUACAUGAGGAUCACCCAUGUAAAAUAAAUAAUAGGUGUAAACGUGUAGAAGGCAGCAUAA [Exclusion 3.14a (FMN+ favored )] | 27.5 nM | 62.6 nM
